One molecule from patent US20230391887A1 can be followed below.

Assay [1] has as its target meditope-enabled Trastuzumab v2.0 (83E meditope enabled antibody trastuzumab). Briefly: SPR, antibody immobilized at 1500 RU, 37 C.
For assay [2] the target is unchanged. Briefly: SPR, antibody immobilized at 150 RU, 37 C, 1:1 fit. In general terms: SPR reads the build-up and loss of mass on a sensor chip optically.
Assay [3] has the same target. Briefly: SPR, antibody immobilized at 750 RU, 37 C, 1:1 fit.
Assay [4] has the same target. Briefly: SPR, antibody immobilized at 1500 RU, 37 C, 1:1 fit.

What is called half-life is the time needed for the level to fall by half in the phase considered. A word on the Kd: it is the equilibrium constant for the complex coming apart. Higher therefore signals a looser complex. In general, koff refers to the rate constant with which the complex falls apart. Read a high koff as fast dissociation. The term kon denotes the second-order rate constant of association. Low values mean slower complex formation, high ones faster complex formation.

B1: trivalent meditope (TVM) (protein)
chain: GGSAAPSSAPSPSAPCQFDLSTRRLSCGGASPAASPSAPSSPAPKAPSAAPSSAPSPSAPGGCQFDLSTRRLSCGGASPAASPSAPSSPAPKAPSAAPSSAPSPSAPGGCQFDLSTRRLSCGGSPSAPSSPSSPKLPETG
In assay [1], B1 registered a fold improvement of half-life against the monovalent meditope greater than 30 fold and a half-life of 2.42 h. Moreover, in assay [2], the Kd stood at 51.2 nM, the dissociation rate constant (koff) stood at 0.00045 s⁻¹, the on-rate (kon) was determined as 8700 M⁻¹ s⁻¹ and the t1/2 was determined as 0.4 h. Besides, in assay [3], the Kd was found to be 14 nM, the koff is 0.00014 s⁻¹, the kon is 10000 M⁻¹ s⁻¹ and the t1/2 is 1.3 h. In assay [4], this molecule gave a Kd of 8.2 nM, a koff of 8e-05 s⁻¹, a kon of 9800 M⁻¹ s⁻¹ and a t1/2 of 2.4 h.
